The nature of this data set: soluble on expression in E. coli; label from the status in PepcDB or PDB records.
For “MAHHHHHHMVIFFGRAQTRRVTGKVVVFGATTNVGKHLSLLLTLSPQVKELCCFDPLNDVTLRMTETRVRGIVKDLSHIDTGVVLRAVDDPQQWEPAMRNAQLVLICTGSIPNPSRLQRDLALAECAPEYLVAMELVARAAPHAIVGIASGPVNSLVPLAREVLLRHSAFDPRKLFGITSRDVMRTRVLFAKELHMNPYDVNVHVVGGKGDATVCPLITQTGFQLPHQRMVQLCEEVQRPENFTAGDHNSTGCRVDSQNVQGQEKFTCPTLSTANAAYEWVTSIMKAQRGDRGITECSFVESSIKRETPFFSSRVELGEEGAAQLLPLGALTPYEEELVAAAVPLIVEDVEAGLRLSKTGVDAVS”, the “soluble on expression in E. coli” value is “not soluble”. As for “MSLAIQLGKDYTMLSTPQPVADPKKVEVIEFFSYHCIHCYDDDPAFNAWSKTLPADVSFRKEQIVWQKSMEGFARMFATFNATGTFDKLHRAAFDAQIKQRVDLSKPEQFTGWIKQQKGVDSAKLLQTYNSFGINAQVARATKITRDYQIQGTPTVIVNGKYVVVTATPERMIQVMNELVAKAREGHHHHHH”, the entry is “soluble”; as for “MNNFLKHNDWARDPAFNHFWRHYDFSNQWIKQHTDASRQVQMQMVQRDNLSTEQCFSDSEEPEVIERLSRCEIYSEIENEESDIEEMSEEMKAFFAKTQEHRQKFSIRGRIEQSTDHRNASAEFIAKREKAKKDYGESATKILAMESTLAMKFESEYSQNPQLWPNIPFRF”, “not soluble”; as for “MESTQKDIKLEPDEFNYIIAPGAPESENLAENPENPVDLSEIPLETKPAWFPSSKGRSIVWEHITWVAESQRAACNYCAAEFQVKGGTSALLRHLKTIHPAAINFDPENPPPVARRKRKKMEDYTIVTEDTKSYMDNLLEQFLNVDDSAPRGGLPDHDSPQHMLVVDPQSRADSEIDAVIRNLQQETEQNGLLEPEPDQALKKLLGIDDGRCEEVIAIAAPIQQDEEKQVSSSSGGAQTKKRRADEQKLTENPALNSGKFSLSILSAIRRPPLPSSTATSSSAAAPQIPAMTSSAVASATSAAAAATPMMPAKYNAQAVQILDFEAKVLYNQSLHSTIAREDAMTTYYRMKSRKLELEIKKLERELGEEQDEAQEHEE”, “not soluble”. As for “MSLKITEIETLRPEEFPNLLWVLVHTDEGITGLGETFYGACSAEAYIHEWAANRLIGEDPLQIDRHAKRLSGYLGFRSAGAEMRGNSALDIALWDIFGKATGQPIYQLLGGKCRDTIRTYNTCAGPHYVRTAKQQSVANWGLANSVSARYDDLNAFLHRADELALDLLDSGITAMKIWPFDPYAEASDGYYISKSDLKRALEPFEKIRRAVGDKMDVMVEFHSLWNLPPALQIAEALREYETFWHEDPIRMDSLSSLKRYAERSLAPVCASETLATRWGFRDLLETNAAGIVMLDISWCGGLSEARKIASMAEAWHLPVAPHDCTGPVVLTASTHLSLNAPNALVQESVRAFYDGWYRDLVTALPTVKDGHITVPDGPGLGLELMPDIRERLTIAVRNTSDCEGHHHHHH”, the entry is “soluble”. With “MGSDKIHHHHHHMANNFDLHAALTLATKPGPFVTMTLPVTGIPATDRTQFNSLLKQGKEQLEKVAPDRTWSAYAESFTPFEHGPLTNGSATGLLIMAGASDSYHYWLHTPVAATVTVTYQPNVLPILQAQDKTSDYDILLLGRDAFDLAQVRNGRPEMVNLPVDAPVTLEKALGSELRDRGRWQRSAGEHTQYSGTGSLDTAREADQRNYFMMVDAYVSQHYSNVDQVPLILVANASDQGNFRKFSQNAYLDHVVRVVQGPNLAAANQTLAALALSITEQRHQQATQIRRDAYAKVRQNQQVVQDLGPLATAAVQGQVAKLWLRDDASQPGHLTEKGTVMTATALSRQNNLYNDLALQVSRLGGQVEVLPADAMPTSNPVAAQLRLRETVAH”, the “soluble on expression in E. coli” value is “not soluble”. As for “MASPENVILVHEISKLKTKEELWNPYEWYQFMRDNHPVHYDDEQDVWNVFLYDDVNRVLSDYSLFSSRRERRQFAIPPLETRININSTDPPEHRNVRSIVSKAFTPRSLEQWKPRIQSIANELVKDIENCSEVDIVEQFAAPLPVTVISDLLGVPTTDRKKIKAWSDILFMPYSKEKFNDLDAEKGIALNEFKAYLLPIVQEKRYHLTDDIISDLIRAEYEGERLTDEEIVTFSLGLLAAGNETTTNLIINSFYCFLVDSPATYKEVREKPKLISKAVEEVLRYRFPVTLARRITEDTNIFGPLMKKDQMVVAWVSAANLDEKKFSQASKFNIHRIGNEKHLTFGKGPHFCLGAPLARLEAEIALTTFINAFEKIALSPSFNIEQCILENEQTLKFLPIRLKPQ”, the entry is “not soluble”. As for “MAETDPKTVQDLTSVVQTLLQQMQDKFQTMSDQIIGRIDDMSSRIDDLEKNIADLMTQAGVEELESENKIPATQKS”, the entry is “not soluble”.

Regarding “MHAEKDLITKETTQPVPPPAAVVTHQPITKRYDPPISISPPPQRNNYSHVKVTVDSDTSPRQQAFIDDIVAKGGKLAVVTYDRGGQNTKELTVHKGEYLEVIFDERNWWECKNMHQRVGYVPHTILSMVPFEQQQYASPNHHNNSSSTGGYNNGHHQGPGMLPEDAPSYVKERQGKRGEFRYF”, the “soluble on expression in E. coli” value is reported as “not soluble”. As for “MVVVTGREPDSRRQDGAMSSSDAEDDFLEPATPTATQAGHALPLLPQEFPEVVPLNIGGAHFTTRLSTLRCYEDTMLAAMFSGRHYIPTDSEGRYFIDRDGTHFGDVLNFLRSGDLPPRERVRAVYKEAQYYAIGPLLEQLENMQPLKGEKVRQAFLGLMPYYKDHLERIVEIARLRAVQRKARFAKLKVCVFKEEMPITPYECPLLNSLRFERSESDGQLFEHHCEVDVSFGPWEAVADVYDLLHCLVTDLSAQGLTVDHQCIGVCDKHLVNHYYCKRPIYEFKITW”, the entry is “soluble”; as for “MGSDKIHHHHHHMMQGFLLQTQSIRDEDLIVRVLTKNQLKTLYRFYGKRHSVLNVGRKIDFEEENDDKFLPKLRNILHLGYIWEREMERLFFWQRFCALLFRHLEGVHSLDSVYFDTLDDGANKLAKQHPLRVILEMYATLLNFEGRLQSYNSCFLCDAKLERSVALAQGFILAHPSCLKAKSLNLEKIQAFFRTQSTIDLETEEVEELWRTLNLGF”, “not soluble”; as for “GPGSMAPAVIEIHIPLDRIRNEEYATDDLLLNCLSKIGDTPEEDGLPLRTWILREAHQALIKSPKLRTVLVKPQTVKDKPTHFQICFDE”, “soluble”.

Turning to “MEVQFKNTRKGYYLNSERIELHKGDVVAVEANPGHDIGTVTLTGKLVKLQMRKHRYNTNNGEPFKIYRIAKQGDLDKYCEAKAREYDTMIQSRQISAELNLDMKIGDVEYQGDGNKAIFYYIADERVDFRQLIRVLAETFHIRVEMKQIGARQEAGRIGGIGPCGRQLCCSAWKMNFVSVNTSAARYQDLALNPQKLTGLCAKLKCCLNYEVDAYVEARKKMPSPEIVLETKESAYHYFKADVFRREVSYSTVPNAPVNLTTISARRAFEVISQNKQGFKPVSLEYDDKKQSSGHELSDILTDNSLTRFDDALSRRRRRNGNGNRDFSDREKAGEPHRTPDSIQPTPRVRSSSRMPSREKSPRPEGGDRRENMRERSRGDARFARPYTNEGGSERMEGARRVVGSGRRPPRQSTPRQEDRQGERKEE”, the “soluble on expression in E. coli” value was “not soluble”.

For “MAWGGLCNPPLCFGFSGCDMNVREYYEHALAERGYQPDEAQLQAVERLQRYYDEWVRFKALRSNALKKLLNRPDVPRGVYLWGGVGRGKSFLMDAFYATVPVVRKTRLHFHEFMRGVHRELEEVKGTQDPLDEVARRLARRYRLICFDEFHVSDVADAMILYRLLLKLFEHGTSFVMTSNYEPSTLYPDGLHRDRILPAIALIQGRMDVLNVDAGIDYRRRSLEQVQCYHTPLDAQARQALEHAFAQLSDTAPQDPVLHIEHREIRAQALAGSVVWFDFATLCGGPRSQNDYLELANRFHAVILSDVPRMGPRQASEARRFTWLIDVFYDHKVKLIMSAEVEPEQLYTEGALANEFHRTVSRILEMQSREYLEAERRLAVTLAAALEHHHHHH”, the “soluble on expression in E. coli” value is “not soluble”.

Consider “MAVPPAYADLGKSAKDIFNKGYGFGMVKLDVKTKSASGVEFKTSGSSNTDTSKVVGSLETKYKRSEYGLTFTEKWNTDNTLGTEINIEDQIAKGLKLTFDTTFSPNTGKKSGKVKTAYKREFVNLGCDVDFDFAGPTIHGAAVVGYEGWLAGYQMSFDTAKSKMTQNNFAVGYKTGDFQLHTNVNDGSEFGGSIYQKVSDKLETAVNLAWTAGSNSTRFGIAAKYQLDKDASISAKVNNTSLVGVGYTQSLRPGIKLTLSALVDGKSINSGGHKLGLGLELEA”, for which the “soluble on expression in E. coli” value is reported as “not soluble”. As for “MAGQEDPVQREIHQDWANREYIEVITSSIKKIADFLNSFDMSCRSRLATLNEKLTALERRIEYIEARVTKGETLT”, the entry is “soluble”; as for “MGSDKIHHHHHHMIDVAIIGGGHNGLVTAAYLAKAGLKVAVFERREIVGGASVTEELWPSIKVSTGAYVLSLLRPKIIEELKLREFGLKVYLKDPGLFLPFENGKKLYIWSSLEKTKKEIEKFSKNDAKNYKKWVKFWDLFAEMADFFMLNPPPHIDEASNLINIFRGNVNEELALSFLRTFMQDAKSLLDEYFETDEVKSALAEDSVVGTFASPSTPGTAYVLAHHVIGEVNGVKGAWGYVEGGMGEVTQALKRSAEHLGVEIYTNAEVDEVLVKNGRVEGIKLKNGKTINAKIIVSNADPKTTFFKLLRNAELEEDFLRRVRALKNVGVSFKIVGYLEELPDFGNGKSLSPEHIASELIMPNMEYIEKAYDDARALGYSREPWLSINIQSSVDPTVAPPGKFSFSIFGQYLVYDSKRNDEMKEKIAEITFEKIKEFAPNFKPIKYEVLTPLDIERRFGINGGNIFHLDMTPDQLYFFRPLIGYSDYTTPIRGLYLCGSGTHPGGGVTGAPGYNAHVKILEDLRKGIYK”, “not soluble”; as for “MGSDKIHHHHHHMTIKETSRSEFITLRGLRYHVRQWGTPGAPKLFMLHGWMDVAASFQFLVDCLERDWHVIAPDWRGFGETDWPTRYPGTESYWFADYIADLEALLDHYQPNGQVDLVGHSMGANVACLYAGIRPERVHRVVDLEGFGLTQTRAEQAPKRYARWLDELRQRPELRTYDDVSGVAARLQKTNPRLPDDRAAFLAEHWSRRNEAGQWEILGDPAHKLVNPVLYRVDEVMAIWAEVSAPVLHVEARDSATLRHIAHKQTLEEFRERFRAFRDFREVVIDDAGHMLHHDQPAAVAALIESFIA”, “not soluble”. As for “MDVQDLKPPKPLYLERVGFRGVRRRALLETPEGPVTLDLELDVFVDLDRSKRGVHLSRNIEAVEAVVSERRARSIEGLLRSIAKELLSRHGYAEKATVRARTRYYIDLEAAGVKGREPVDVAVTVSLTRSGGERWRVAVSVKGMTVCPSAQSTIAEAEGISDPSRAPSHSQKVLLKGTVDTGKVMVRIEDLARALLQSFSAPTFTLLKKPQEARLILEAFTRPMFVEDVVREAAWRIAAIPYIPGEALLQVEAVSLESIHPHDLVAMLRSRVSEVRSLASRSV”, the entry is “not soluble”; as for “MDLYEKIKLLASEKKMSIRQLEETLGFGNGVINRWRKNTPGSDKLKKVADYFNISVDYLLGRTDNPNSNNLEEDEITTFFRVNTEDLTESEKDQLREELKEYLEFMKSRLKNK”, “soluble”. With “MGSDKIHHHHHHMVDFKEQQQRYWQLLHQPESLFLLHRANDVEHFIALMTDFLAWPELSLEHMLAFIALQQDSFIPDLDRFSQAWFPCRYHSQHKTVSWVPALHKLSKPFLEDDISDARRCLLASFIQPSTLLEPLLSQRESLPIVNPSLMIFHWSRCGSTLVSSSFALLETCRVLSESMLCSDVMHDDHWPLALKPQLVDLCLRLQGRLRLGERKLVIKWNAWDLACWPMLLELYPKSRVLCLIRNPKDIIDSHQRVAGRHMAGGQSLLPTELQTQQMENTDTEPSLDEFRTTVLQYLAQLSLALHQSSRVILLDYHQLTDFKPTTFSTILGWALSEGEIERWQHHWRFDAKQQGQLFTPVVPNEPVPIRECQNPSWQQLLITYNQLLQRLYWDKKA”, the “soluble on expression in E. coli” value was “not soluble”.

The values above are taken from the DeepSol protein solubility set.
